Series [1] addresses Clostridium leptum carboxyspermidine dehydrogenase (Clostridium leptum). As to the kind of experiment: SEC; HiLoad 16/600 Superdex 200, 25 mM Tris pH 8; 100 ul of 10 mg/ml (BfCASDH) or 5 mg/ml (ClCASDH) injected. For orientation: Size exclusion chromatography separates by hydrodynamic size, large species first.
The target in series [2] is Bacteroides fragilis carboxyspermidine dehydrogenase (Bacteroides fragilis). The description is as above.
The next series deals with T1, BfCASDH (Bacteroides fragilis, UniProt I9VY56).
T1 construct: gene HMPREF1080_01141; full length (397 residues modelled per chain), N-terminal hexahistidine tag kept, pET-28b, E. coli BL21 (DE3)
T1 sequence (I9VY56 1-397): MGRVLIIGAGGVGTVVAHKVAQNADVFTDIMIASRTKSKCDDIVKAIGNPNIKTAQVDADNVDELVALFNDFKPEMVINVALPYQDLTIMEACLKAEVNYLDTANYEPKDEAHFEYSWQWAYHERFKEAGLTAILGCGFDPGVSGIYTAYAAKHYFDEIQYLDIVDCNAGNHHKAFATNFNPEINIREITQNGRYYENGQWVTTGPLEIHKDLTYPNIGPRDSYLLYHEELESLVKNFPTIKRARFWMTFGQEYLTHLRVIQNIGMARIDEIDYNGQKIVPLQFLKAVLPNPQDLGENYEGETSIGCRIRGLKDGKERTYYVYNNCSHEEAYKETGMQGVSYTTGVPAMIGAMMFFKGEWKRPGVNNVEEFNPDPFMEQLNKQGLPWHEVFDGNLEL
Description: intrinsic tryptophan fluorescence quenching (ex […] nm, em […] nm), sigmoidal fit. The class given is binding.

Substrate in series [3]: NC(=O)C1=CN([C@@H]2O[C@H](COP(=O)(O)OP(=O)(O)OC[C@H]3O[C@@H](n4cnc5c(N)ncnc54)[C@H](OP(=O)(O)O)[C@@H]3O)[C@@H](O)[C@H]2O)C=CC1
Description: purified protein. The class given is biochemical, [Clostridium] leptum. To be noted: apparent, 2.5 mM ASA (subsaturating), 20 mM putrescine, 25 mM Tris pH 7.5, varied: cofactor.

Substrate in series [4]: NCCCN
Description: purified protein. To be noted: apparent, 2.5 mM ASA (subsaturating), 150 uM NADPH, 25 mM Tris pH 7.5. The class given is biochemical, [Clostridium] leptum.

Substrate in series [5]: NCCCCN
Description: purified protein. To be noted: apparent, 2.5 mM ASA (subsaturating), 150 uM NADPH, 25 mM Tris pH 7.5. The class given is biochemical, [Clostridium] leptum.

Substrate in series [6]: NC(=O)C1=CN([C@@H]2O[C@H](COP(=O)(O)OP(=O)(O)OC[C@H]3O[C@@H](n4cnc5c(N)ncnc54)[C@H](OP(=O)(O)O)[C@@H]3O)[C@@H](O)[C@H]2O)C=CC1
Description: purified protein. The class given is biochemical, Bacteroides fragilis. Conditions: apparent, 2.5 mM ASA (subsaturating), 20 mM putrescine, 25 mM potassium phosphate pH 7.5, varied: cofactor.

Substrate in series [7]: NCCCN
As to the kind of experiment: purified protein. To be noted: apparent, from Hill equation (half-saturation), 2.5 mM ASA (subsaturating), 150 uM NADPH, 25 mM potassium phosphate pH 7.5. The class given is biochemical, Bacteroides fragilis.

Substrate in series [8]: N[C@@H](CC=O)C(=O)O
Description: purified protein. Format: biochemical, Bacteroides fragilis. Conditions: apparent, from Hill equation (half-saturation), 20 mM putrescine, 150 uM NADPH, 25 mM potassium phosphate pH 7.5, substrate inhibition above 2.5 mM.

Substrate in series [9]: NCCCCN
Description: purified protein. Format: biochemical, Bacteroides fragilis. Conditions: apparent, from Hill equation (half-saturation), 2.5 mM ASA (subsaturating), 150 uM NADPH, 25 mM potassium phosphate pH 7.5.

In general, stoichiometry N refers to a count of units in the complex or per binding partner. In series [1], “Clostridium leptum carboxyspermidine dehydrogenase (enzyme)” yielded a stoichiometry N of 2.

Molecule “Bacteroides fragilis carboxyspermidine dehydrogenase (enzyme)” came in with a stoichiometry N in series [2] of 2.

Usually Kd stands for the constant that tells how readily two partners part at equilibrium. Lower therefore signals a tighter complex. `NCCCN` [DAP] registered a Kd at BfCASDH of 15 ± 2 mM.

Regarding `NCCCCN` [putrescine], at BfCASDH, the Kd turned out to be 11 ± 1 mM.

B1: ClCASDH ([Clostridium] leptum DSM 753) (protein)
chain: MGKALIIGCGGVASVAIHKCCQNSGVFEEICIASRTKSKCDALKEKLSGGKTKITTAQVDANSVDELTALINQVKPDVVLNLALPYQDLTIMEACLAAKVNYVDTANYEPEDTAKFEYSWQWAYRKKFEDAGITALLGSGFDPGVTGVFSAYAQKHYFDEINYIDILDCNAGDHGYPFATNFNPEINIREVSAKGSYWEDGHWVETEPMEIKRVYNFPEIGDKDMYLLHHEELESLALNIKGIKRIRFFMTFGQSYLTHLKCLEDVGMTSIEPIEFQGQQIVPLQFLKAVLPDPSSLGPRTKGKTNIGCIFQGKKDGKDKTYYVYNVCDHQECYKEVGSQAVAYTTGVPAMIGAMMLMTGVWNKPGVHNIEEFDPDPFMDALNKWGLPWKESFSPELVD
notes: full length, N-terminal hexahistidine tag, pET-28b, E. coli BL21 (DE3)
In general, Km refers to the substrate concentration at which the rate is half of its maximum. For orientation: kcat means the maximal rate divided by the concentration of active sites. The term kcat/Km denotes the second-order rate constant that governs catalysis at low substrate concentration. Take B1: in “purified protein [3]”, the Km was 16 ± 2 µM, the turnover number (kcat) is 0.22 ± 0.02 s⁻¹ and the kcat/Km amounted to 13800 ± 900 M⁻¹ s⁻¹. Moreover, in the series “purified protein [4]”, the Km worked out at 6900 ± 1100 µM, the catalytic constant (kcat) was found to be 0.49 ± 0.03 s⁻¹ and the catalytic efficiency (kcat/Km) is 71 ± 12 M⁻¹ s⁻¹. In “purified protein [5]”, the Michaelis-Menten constant (Km) turned out to be 5000 ± 600 µM, the catalytic constant (kcat) is 0.37 ± 0.01 s⁻¹ and the kcat/Km came to 74 ± 10 M⁻¹ s⁻¹.

B2: BfCASDH (Bacteroides fragilis CL05T12C13) (protein)
chain: MGRVLIIGAGGVGTVVAHKVAQNADVFTDIMIASRTKSKCDDIVKAIGNPNIKTAQVDADNVDELVALFNDFKPEMVINVALPYQDLTIMEACLKAEVNYLDTANYEPKDEAHFEYSWQWAYHERFKEAGLTAILGCGFDPGVSGIYTAYAAKHYFDEIQYLDIVDCNAGNHHKAFATNFNPEINIREITQNGRYYENGQWVTTGPLEIHKDLTYPNIGPRDSYLLYHEELESLVKNFPTIKRARFWMTFGQEYLTHLRVIQNIGMARIDEIDYNGQKIVPLQFLKAVLPNPQDLGENYEGETSIGCRIRGLKDGKERTYYVYNNCSHEEAYKETGMQGVSYTTGVPAMIGAMMFFKGEWKRPGVNNVEEFNPDPFMEQLNKQGLPWHEVFDGNLEL
notes: full length (397 residues modelled per chain), N-terminal hexahistidine tag kept, pET-28b, E. coli BL21 (DE3)
B2: in “purified protein [6]”, the Michaelis-Menten constant (Km) is 57 ± 3 µM, the kcat stood at 0.39 ± 0.05 s⁻¹ and the catalytic efficiency (kcat/Km) is 6700 ± 200 M⁻¹ s⁻¹. For the same molecule, in “purified protein [7]”, the K0.5 came to 19.7 ± 3.6 mM, the kcat was found to be 0.34 ± 0.03 s⁻¹ and the kcat/Km is 17 ± 3 M⁻¹ s⁻¹. In “purified protein [8]”, the K0.5 was 2.7 ± 0.1 mM, the kcat amounted to 0.64 ± 0.02 s⁻¹ and the kcat/Km came out at 230 ± 15 M⁻¹ s⁻¹. In addition, in the series “purified protein [9]”, the K0.5 came to 4.2 ± 0.3 mM, the kcat was found to be 0.41 ± 0.02 s⁻¹ and the catalytic efficiency (kcat/Km) came out at 96 ± 7 M⁻¹ s⁻¹.

Values taken from PMC10413350, “Kinetic and structural characterization of carboxyspermidine dehydrogenase of polyamine biosynthesis” (The Journal of Biological Chemistry, 2023).
